Source: US20220243196

Assays:
[1] = test system: Hantavirus (serum containing virus; nuclear protein) (Hantavirus); test: ELONA
[2] = test system: Influenza A virus (serum containing virus) (Influenza A virus); test: ELONA

## ATCCAGAGTGACGCAGCACACATCGGAGAACAGGCGCACTGTCGGAGGAACCGCAACGTGGACACGGTGGCTTAGT [biotin-aptamer 3]
[1]
  binding signal (a.u. absorbance): 0.1
[2]
  binding signal (a.u. absorbance): 0.1
